# Measurements taken from US6395531.
# System: MlyI restriction endonuclease (Micrococcus lylae)
# Assay: cleavage_in_vitro
# Details: recombinant MlyI yield approximately 50,000 units per gram of cells; assay substrate not stated
substance,measurement,value
plasmid DNA with MlyI sites (sequence not printed),activity (units/g cells),50000
